Experimental data published in patent US20090311685A1, “NMU-GHSR1b/NTSR1 oncogenic signaling pathway as a therapeutic target for lung cancer” (Oncotherapy Science, Inc, priority 2006, published 2009).
Each block holds one molecule with its values, some of them ahead of it. Where no end group is shown, it is not given here.

Tests used:
[1] = target: T1, endogenous GHSR1b and NTSR1 on LC319 cells (Homo sapiens, UniProt P30989+Q92847); experiment: Ligand-receptor binding assay with Cy5-labeled NMU-25; conditions: 1 μM, dose-dependent
T1 construct: endogenous in cells; host or cells: LC319
Experimental: (§1) To confirm the binding of NMU-25 to endogenous candidate receptors on the NSCLC cell, a receptor-ligand binding assay using LC319 and PC14 cells that express GHSR1b and NTSR1, but not NMU1R and NMU2R were performed. Specifically, trypsinized cells were seeded onto a 96-well (with black wall and clear bottom) microtiter plates 24 hours prior to the assay. The medium was removed and the cells were incubated with CyS-labeled NMU-25 peptide (1 μM) with or without the addition of 10-fold excess unlabeled NMU-25 peptide as the competitor. The plate was incubated in dark for 24 hours at 37° C. and then scanned on 8200 Cellular Detection System (Applied Biosystems) to quantify the amount of CyS fluorescence probe bound to the surface of each cell. (15) Immunocytochemistry for Internalized Receptors

[2] = target: T2, endogenous GHSR1b and NTSR1 on PC14 cells (Homo sapiens, UniProt P30989+Q92847); experiment: as above; conditions: 1 μM, dose-dependent
T2 construct: endogenous in cells; host or cells: PC14
Experimental: as §1

LC319 cells [3] = experiment: Intracellular Ca^2+ mobilization assay (FLIPR); assay type: cell-based, human
Experimental: Trypsinized LC319 cells were seeded onto poly-D-lysine coated 384-well black-wall, clear-bottom microtiter plate (1.0×10^4 cells/ml) 24 hours prior to the assay. The cells were loaded for 1 hour with 4 μM Fluo-3-AM fluorescent indicator dye in assay buffer (Hank's balanced salt solution, 20 mM HEPES, 2.5 mM probenecid), washed three times with assay buffer, and then incubated for 10 min at room temperature before detection on fluorometric imaging plate reader (FLIPR; Molecular Devices). Fluorescence data of Ca^2+ release were collected in real-time at 1 sec intervals for the first 65 sec and at 3 sec intervals for additional 300 sec after individual concentrations of peptide (NMU-25, […], or NTS) treatment. Maximum change in fluorescence over baseline was measured to determine the response of the cells to the individual peptide stimulations.

NSCLC cells = experiment: Competition of NMU-induced cAMP production; assay type: cell-based
LC319 cells [4] = experiment: Measurement of cAMP levels (cAMP EIA); assay type: cell-based, human; conditions: final concentrations of 3 to 100 μM
Experimental: Trypsinized LC319, REF-LC-AI, NCI-H358 and SK-MED-1 cells were seeded onto a 96-well microtiter plate (5.0×10^4 cells) and cultured in appropriate medium supplemented with 10% FCS for 24 hours, and then the medium was changed to serum free/1 mM IBMX (isobutylmethylxanthine) 20 min prior to the assay. Next, the cells were incubated with individual concentrations of peptides (NMU-25, GHRL, or NTS) for 20 min and cAMP levels of the cells were measured using cAMP EIA System (GE Healthcare Bio-sciences).

LC319 cells [5] = experiment: Flow cytometry of cell cycle after siRNA transfection; assay type: cell-based, human
Experimental: Cells were plated at a density of 5×10^5 cells/100-mm dish, transfected with siRNA-expression vectors, and cultured in the presence of appropriate concentrations of geneticin. Four days after transfection, the culture medium was replaced with geneticin-free medium. Cells were incubated for additional 24 hours, then trypsinized, collected in PBS, and fixed in 70% cold ethanol for 30 min. After treatment with 100 μg/ml RNase (Sigma-Aldrich Co.), the cells were stained with 50 μg/ml propidium iodide (Sigma-Aldrich Co.) in PBS. Flow cytometry was performed on Becton Dickinson FACSCalibur and analyzed by Cell Quest software (Becton Dickinson Biosciences). The percentage of nuclei in G0/G1, S, and G2/M phases on the cell cycle and the sub-GI population, were determined from at least 20,000 ungated cells.

FLAG-tagged NTSR1 = target: T3, FLAG-tagged NTSR1 (Homo sapiens (Human), UniProt P30989 1-418); experiment: DSP cross-linking, immunoprecipitation and Western blot of transfected COS-7 cells
T3 construct: Transiently expressed in COS-7 cells; COS-7 cells also express GHSR1b and NTSR1 endogenously, so in the cells transfected only with FLAG-GHSR1b the NTSR1 partner is the endogenous COS-7 protein; also called NTSR1 (p3XFLAG-CMV10 construct); not shown: FLAG tag from the p3XFLAG-CMV10 vector
Experimental: (§2) Cultured cells were washed twice with ice-cold PBS(−) and incubated with 5 mM Dithiobis [succinimidyl propionate] (DSP) (PIERCE) for 60 min in PBS(−) on ice. The reaction was quenched by incubation with Stop solution (1 M Tris, pH 7.5) at a final concentration of 50 mM Tris for 15 min on ice. The cells were then washed twice with ice-cold PBS(−) and lysed in ice-cold Tx/G buffer (300 mM NaCl, 1% Triton X-100, 10% glycerol, 1.5 MM MgCl₂, 1 mM CaCl₂, and 10 mM iodoacetamide in 50 mM Tris-Cl, pH 7.4) containing protease inhibitor (Protease Inhibitor Cocktail Set III; Calbiochem) for 60 min on ice. […] The solutions were subjected to SDS-PAGE, and receptor proteins were detected by Western blot analysis using mouse monoclonal anti-FLAG M2 antibody, goat polyclonal anti-NTSR1 antibody, or rabbit polyclonal anti-GHSR antibody as the primary antibody, and rec-Protein G-Peroxidase Conjugate (ZYMED Laboratories, Inc.) to detect the antigen-antibody complexes.
To examine direct association between GHSR1b and NTSR1, either or both of FLAG-tagged GHSR1b and FLAG-tagged NTSR1 were transiently expressed in COS-7 cells (FIG. 2A depicts the data of transient GHSR1b expression, and FIG. 2B the expression of both receptors). […] No such species were detected when empty vector (mock) was transfected to COS-7 cells as the negative control.

[6] = target: the molecule itself; experiment: anti-FLAG immunoprecipitation, SDS-PAGE, immunoblot with anti-FLAG, anti-NTSR1 or anti-GHSR antibody
Excerpt: Cell lysates from COS-7 cells that transiently express the FLAG-tagged GHSR1b, and those co-expressing both the FLAG-tagged GHSR1b and NTSR1 were immunoprecipitated with anti-FLAG antibody, subjected for SDS-PAGE, and then immunoblotted with anti-FLAG antibody (A), with anti-NTSR1 antibody (B), or with anti-GHSR antibody (C). The arrows indicate the monomer, heterodimer, and homodimers of the receptors. The molecular weight (kDa) markers are indicated on the left side of individual panels. Non-specific immunoreactive protein band detected by anti-FLAG antibody is indicated with asterisks.
as §2, with “ice.” for “ice. The cells were then washed twice with ice-cold PBS(−) and lysed in ice-cold Tx/G buffer (300 mM NaCl, 1% Triton X-100, 10% glycerol, 1.5 MM MgCl₂, 1 mM CaCl₂, and 10 mM iodoacetamide in 50 mM Tris-Cl, pH 7.4) containing protease inhibitor (Protease Inhibitor Cocktail Set III; Calbiochem) for 60 min on ice.”

COS-7 cells = experiment: Flow-cytometric binding of rhodamine-labeled NMU-25 to cells; conditions: 0.5-10 μM, 2 hours at room temperature
Experimental: (11) Cell-Growth and Colony-Formation Assays COS-7 transfectants that stably express NMU were seeded onto 6-well plates (5×10^4 cells/well), and maintained in medium containing 10% FCS and 0.4 mg/ml geneticin for 24, 48, 72, 96, 120, and 144 hours. At each time point, cell proliferation was evaluated by MTT assay using Cell Counting Kit (WAKO). Colonies were counted at 144 hours. All experiments were done in triplicate. Interaction of NMU-25 with COS-7 cells were examined by flow-cytometric analysis. Specifically, subconfluent cells were harvested in Cell Dissociation Solution (Sigma-Aldrich Co.) and suspended in DMEM. Then, 1×10^6 cells/microtube were washed with assay buffer (PBS(−) with 10 mM MgCl2, 2 mM EDTA, and 0.1% BSA), and the cells were incubated with 0.5-10 μM rhodamine-labeled NMU-25 peptide (NMU-25-rhodamine; Phoenix Pharmaceuticals, Inc.) in assay buffer for 2 hours at room temperature. Subsequently, the cells were washed twice with assay buffer.
To detect the population of cells binding to rhodamine-labeled NMU-25, flow cytometry was performed using Becton Dickinson FACSCalibur and analyzed by Cell Quest software. The growth effect of NMU on NSCLC cells was also examined using LC319 cells transiently transfected with plasmids expressing NMU or mock plasmids. The cells were cultured in RPMI containing 10% FCS and geneticin (1 mg/ml) for 18 days, and colonies were counted.

LC319 cells [7] = experiment: Internalization study with fluorescence ligand of NMU (confocal microscopy); assay type: cell-based, human
Experimental: LC319 cells were grown in DMEM containing 10% FCS. The cells were washed in PBS(−), and preincubated for 10 min at 37° C. in DMEM containing 0.1% BSA. The cells were then incubated for various periods of time with Alexa Fluor 594-labeled NMU-25 peptide in DMEM containing 0.1% BSA. At the end of incubation, the cells were washed three times with ice-cold PBS(−), fixed with 4% paraformaldehyde solution, initially for 5 min on ice and then for 15 min at room temperature. The cells were washed, and treated with DAPI. Images were viewed and assessed using confocal microscopy (TCS SP2 AOBS; Leica Microsystems). Optical sections with intervals of 0.25 μm were taken with 63×/1.4 objective.

T2 sequence (P30989 whole entry, one chain of several): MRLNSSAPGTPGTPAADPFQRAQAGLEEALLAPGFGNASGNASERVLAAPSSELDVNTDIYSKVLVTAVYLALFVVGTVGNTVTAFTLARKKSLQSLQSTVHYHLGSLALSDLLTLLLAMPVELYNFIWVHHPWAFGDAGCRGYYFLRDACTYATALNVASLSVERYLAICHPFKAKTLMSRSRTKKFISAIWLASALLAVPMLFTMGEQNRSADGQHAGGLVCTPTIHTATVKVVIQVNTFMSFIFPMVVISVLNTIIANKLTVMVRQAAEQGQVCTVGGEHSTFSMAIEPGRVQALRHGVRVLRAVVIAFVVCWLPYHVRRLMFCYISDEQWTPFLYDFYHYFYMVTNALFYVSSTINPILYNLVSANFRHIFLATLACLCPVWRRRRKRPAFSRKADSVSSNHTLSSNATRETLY
T1 sequence (P30989 whole entry, one chain of several): as above
T3 sequence (P30989 whole entry A200T): as the sequence (P30989 whole entry, one chain of several) above, with A200T counted along it

binding to the cell surface [1]: detected to bind to the surface | binding to the cell surface [2]: detected to bind to the surface
Molecule: Cy5-labeled NMU-25: Cy5 fluorescence-labeled NMU-25 peptide for the receptor-ligand binding assay (FRVDEEFQSPFASQSRGYFLFRPRN; ends and bridges not checked; also: Cy5 fluorescence label, site not given here)

Molecule: nerotensin [NTS]
intracellular Ca^2+ flux / mobilization (LC319 cells [3]): caused the mobilization response | NMU-induced cAMP production (NSCLC cells): competitively inhibited | cAMP production (LC319 cells [4]): did not enhance

Molecule: si-EGFP: control siRNA against enhanced green fluorescent protein gene, 5′-GAAGCAGCACGACTTCTTC-3′ (SEQ ID NO: 46) (chemistry not given here)
sub-GI fraction (LC319 cells [5]): 11.2%

binding result (FLAG-tagged NTSR1): binds
B1: FLAG-tagged GHSR1b (receptor)
chain: MWNATPSEEPGFNLTLADLDWDASPGNDSLGDELLQLFPAPLLAGVTATCVALFVVGIAGNLLTMLVVSRFRELRTTTNLYLSSMAFSDLLIFLCMPLDLVRLWQYRPWNFGDLLCKLFQFVSESCTYATVLTITALSVERYFAICFPLRAKVVVTKGRVKLVIFVIWAVAFCSAGPIFVLVGVEHENGTDPWDTNECRPTEFAVRSGLLTVMVWVSSIFFFLPVFCLTVLYSLIGRKLWRRRRGDAVVGASLRDQNHKQTVKMLGGSQRALRLSLAGPILSLCLLPSL
notes: Transiently expressed in COS-7 cells; Cross-linked with DSP, immunoprecipitated with anti-FLAG beads and blotted; also called GHSR1b (p3XFLAG-CMV10 construct); not shown: FLAG tag from the p3XFLAG-CMV10 vector
binding result [6]: binds

B2: rhodamine-labeled NMU-25 peptide: rhodamine-labeled NMU-25 peptide (Phoenix Pharmaceuticals, Inc.) (conjugate)
peptide: MLRTESCRPRSPAGQVAAASPLLLLLLLLAWCAGACRGAPILPQGLQPEQQLQLWNEIDDTCSSFLSIDSQPQASNALEELCFMIMGMLPKPQEQDEKDNTKRFLFHYSKTQKLGKSNVVSSVVHPLLQLVPHLHERRMKRFRVDEEFQSPFASQSRGYFLFRPRNGRRSAGFI
binding to the cell surface (flow cytometry) (COS-7 cells): bound to the surface of COS-7 cells in a dose-dependent manner

B3: NMU-25-Alexa594: Alexa Fluor 594-labeled NMU-25 peptide (conjugate)
peptide: B2 peptide
localization of internalized ligand (LC319 cells [7]; 15-min incubation): concentrated in dots or irregular clusters at more peripheral part of the cytoplasm | localization of internalized ligand (LC319 cells [7]; 45-min incubation): concentrated within small spots clustered in the center of the cells, close to the nucleus | internalization of labeled ligand (xz- and yz-projections) (LC319 cells [7]; confocal microscopy): incorporated within the cells
